This is an account of results in patent US4608364A, “Pharmaceutical agent for the treatment of diabetes mellitus” (Hoechst Aktiengesellschaft, priority 1983, dated 1986).

The nature of data set [1]: Biological activity of insulins and insulin derivatives. The following applies: specific activity of the active compound used in the formulation.
The conditions of data set [2]: unmodified hormone, background statement; region of maximum insolubility; cited from earlier work.
The conditions of data set [3]: based on the amount of protein; cited from earlier work.

Take “Porcine proinsulin: porcine proinsulin, dissolved component of Example 2”: the “biological activity per mg” value in data set [1] came to 3.3 IU/mg. On to insulin [reference compound], for which the isoelectric point in data set [2] was 5.4. On to “proinsulin: naturally occurring precursor of insulin, A and B chain linked by the C peptide”, for which the “inherent biological activity as fraction of the activity of insulin” value in data set [3] is reported as “about 1/8”. The isoelectric point in data set [2] was 5.4.
